According to publication PMC6391002, “Myc-induced nuclear antigen constrains a latent intestinal epithelial cell-intrinsic anthelmintic pathway” (PLoS ONE, 2019):

B1: HD5: Reduced human enteric defensin 5, literature result (peptide, UniProt Q01523 20-94, looked up)
Defensin alpha 5: ESLQERADEATTQKQSGEDNQDLAISFAGNGLSALRTSGSQARATCYCRTGRCATRESLSGVCEISGRLYRLCCR
modifications: Defensin-5 reduced form
notes: Reduced human enteric defensin 5, literature result

Legend:
L3 TM larvae = format: cell-based, Trichuris muris
Procedure: Synthetic reduced (r-)Defa1, r-Defa2, r-Defa4, r-Defa5 and r-Defa6, r-Defa20, r-Defa21, r-Defa23 and r-Defa24 were purchased from Medical and Biological Laboratories Co., Ltd. (Nagoya, japan) and stored at -30°C until use. Three pairs of disulfide bonds were introduced into synthetic Defa1 and Defa4 (Medical and Biological Laboratories Co., Ltd., Nagoya, japan) by air oxidation as described previously. Using reverse-phase high-performance liquid chromatography (RP-HPLC) reaction mixtures were applied to C-18 columns (SepaxHP-C18, 4.6 x 150mm, […]; Sepax Technologies, Newark, DE, USA) in 0.1% trifluoroacetic acid with an 18–36% acetonitrile gradient developed over 30min at 1ml/min. […] Disulfide bond status of Defas was evaluated by acid-urea PAGE and MALDI-TOF MS (Voyager-DE PRO; Applied Biosystems, Carlsbad, Calif., USA) as described previously. […]
Supplementary file pone.0211244.s012.pdf: S12 Fig Cytotoxic activity of α-defensins toward L3 TM larvae. Cytotoxic activity of reduced (r-) α-defensins 5, 20, 21, 23 and 24 against L3 TM larvae was measured by lactate dehydrogenase release assay. […]
Cytotoxic activity of reduced (r-) α-defensins 1, 2, 4, 5 and 6 against L3 TM larvae was measured by lactate dehydrogenase release assay. […]
Cytotoxic activity of reduced (r-) and oxidized (o-) α-defensins 1 and 4 against L3 TM larvae was measured by lactate dehydrogenase release assay. […]

[1] = test system: LPS; macrophage production of TNF; conditions: reduced peptide; ref [27]; cited from earlier work
Excerpt: Given the prominence of α-defensin and α-defensin-related genes in the Mina genetic perturbation signature we considered whether they might contribute to the IEC-intrinsic roles of Mina in response to TM infection. Upregulation of α-defensins in Mina^ΔIEC mice could promote accelerated TM expulsion via multiple non-mutually exclusive mechanisms. First, it is well established that α-defensins can shape commensal microbiota diversity. Thus, α-defensins may act indirectly by altering commensal microbiota diversity, thereby eliminating niches essential for, or creating ones hostile toward, ...

Molecule	cytotoxicity against L3 TM larvae after oxidation of the peptide (oxidized, o-, form with three disulfide bonds), S14 Fig (L3 TM larvae)	LPS neutralization [1]	macrophage production of TNF [1]
Defa1: Synthetic reduced mouse α-defensin 1 peptide purchased from Medical and Biological Laboratories (LRDLVCYCRSRGCKGRERMNGTCRKGHLLYTLCCR; Alpha-defensin 1 reduced; UniProt P11477 59-93, looked up)	abolished by oxidation	–	–
B1	–	can neutralize LPS	suppress
